Where a chain is given by its changes, count along the chain named.
Tests used:
[1] = biological target: AdeR receiver domain with linker sequence (AdeR_RD, 1-137) (Acinetobacter baumannii ATCC19606); assay: SEC
[2] = biological target: full-length AdeR (AdeR_FL), response regulator of Acinetobacter baumannii (Acinetobacter baumannii ATCC19606); assay: SEC
AdeR_FL R231A [3] = biological target: T1, AdeR_FL R231A (Acinetobacter baumannii ATCC19606, UniProt E1A0Z5 1-247, R231A); assay: EMSA
T1 sequence: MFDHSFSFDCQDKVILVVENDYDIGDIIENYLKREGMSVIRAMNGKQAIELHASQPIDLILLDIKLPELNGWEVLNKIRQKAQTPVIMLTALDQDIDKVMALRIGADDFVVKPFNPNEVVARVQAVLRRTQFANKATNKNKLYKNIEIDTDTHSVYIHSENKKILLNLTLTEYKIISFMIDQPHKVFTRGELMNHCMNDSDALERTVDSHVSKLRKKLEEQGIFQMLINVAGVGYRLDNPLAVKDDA

AdeR_FL R231A [4] = biological target: T1, AdeR_FL R231A; assay: ITC
AdeR_DBD = biological target: T2, AdeR_DBD (Acinetobacter baumannii ATCC19606, UniProt E1A0Z5 138-247); assay: ITC
T2 sequence: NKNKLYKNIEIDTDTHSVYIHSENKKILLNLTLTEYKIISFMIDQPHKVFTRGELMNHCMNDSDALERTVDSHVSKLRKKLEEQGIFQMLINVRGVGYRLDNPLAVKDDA

AdeR_FL = biological target: T3, AdeR_FL (Acinetobacter baumannii ATCC19606, UniProt E1A0Z5 1-247); assay: ITC
T3 sequence: T1 sequence with A231R

AdeR_FL R122A = biological target: T4, AdeR_FL R122A (Acinetobacter baumannii ATCC19606, UniProt E1A0Z5 1-247, R122A); assay: ITC
T4 sequence: T1 sequence with R122A, A231R

AdeR_FL D63E = biological target: T5, AdeR_FL D63E (Acinetobacter baumannii ATCC19606, UniProt E1A0Z5 1-247, D63E); assay: ITC
T5 sequence: T1 sequence with D63E, A231R

AdeR_FL R205A/R215A = biological target: T6, AdeR_FL R205A/R215A (Acinetobacter baumannii ATCC19606, UniProt E1A0Z5 1-247, R205A;R215A); assay: ITC
T6 sequence: T1 sequence with R205A, R215A, A231R

In the case of “AdeR receiver domain with linker sequence (AdeR_RD, 1-137) (domain or fragment)”, the stoichiometry N [1] is reported as 2.

Work on “full-length AdeR (AdeR_FL), response regulator of Acinetobacter baumannii (natural protein)” yielded a stoichiometry N [2] of 2.

B1: biotin 25 bp intercistronic DNA (dsDNA)
DNA 1: TAAAGTGTGGAGTAAGTGTGGAGAA
DNA 2: TTCTCCACACTTACTCCACACTTTA
B1: no binding (AdeR_FL R231A [3]).

B2: 25 bp intercistronic DNA (dsDNA)
DNA 1: TAAAGTGTGGAGTAAGTGTGGAGAA
DNA 2: TTCTCCACACTTACTCCACACTTTA
For B2, the binding result (AdeR_FL R231A [4]) was “no binding”, the Kd (AdeR_DBD) was 2200 nM and the Kd (AdeR_FL) was 20 nM. The Kd (AdeR_FL R122A) was 1000 nM, the binding result (AdeR_FL D63E) was “binds” and the binding result (AdeR_FL R205A/R215A) was “no binding”.

Reference: PMC5766154
